We go through seven molecules from patent EP4663654A1 (Hangzhou Sciwind Biosciences Co., Ltd., dated 2025).

Sequences and labels used below:
B1: polypeptide derivative M11 (peptide)
peptide: {C20 diacid}-EASQLSTAATQRLADFLRHFTDRDRDILPPTNVGSNTP-NH2
SMILES: CC[C@H](C)[C@H](NC(=O)[C@H](CC(=O)O)NC(=O)[C@H](CCCNC(=N)N)NC(=O)[C@H](CC(=O)O)NC(=O)[C@H](CCCNC(=N)N)NC(=O)[C@H](CC(=O)O)NC(=O)[C@@H](NC(=O)[C@H](Cc1ccccc1)NC(=O)[C@H](Cc1c[nH]cn1)NC(=O)[C@H](CCCNC(=N)N)NC(=O)[C@H](CC(C)C)NC(=O)[C@H](Cc1ccccc1)NC(=O)[C@H](CC(=O)O)NC(=O)[C@H](C)NC(=O)[C@H](CC(C)C)NC(=O)[C@H](CCCNC(=N)N)NC(=O)[C@H](CCC(N)=O)NC(=O)[C@@H](NC(=O)[C@H](C)NC(=O)[C@H](C)NC(=O)[C@@H](NC(=O)[C@H](CO)NC(=O)[C@H](CC(C)C)NC(=O)[C@H](CCC(N)=O)NC(=O)[C@H](CO)NC(=O)[C@H](C)NC(=O)[C@H](CCC(=O)O)NC(=O)CCCCCCCCCCCCCCCCCCC(=O)O)[C@@H](C)O)[C@@H](C)O)[C@@H](C)O)C(=O)N[C@@H](CC(C)C)C(=O)N1CCC[C@H]1C(=O)N1CCC[C@H]1C(=O)N[C@H](C(=O)N[C@@H](CC(N)=O)C(=O)N[C@H](C(=O)NCC(=O)N[C@@H](CO)C(=O)N[C@@H](CC(N)=O)C(=O)N[C@H](C(=O)N1CCC[C@H]1C(N)=O)[C@@H](C)O)C(C)C)[C@@H](C)O
B2: polypeptide derivative M14 (peptide)
peptide: {C20 diacid-Trx′}-ASQLSTAATQRLADFLRHFTDRDRDILPPTNVGSNTP-NH2
modifications: reading uncertain
B3: polypeptide derivative M9 (peptide)
peptide: {C20 diacid-γGlu}-ASQLSTAVLQRLADFLRHSSNNLKPILPPTNVGSNT[Hyp]-NH2
SMILES: CC[C@H](C)[C@H](NC(=O)[C@@H]1CCCN1C(=O)[C@H](CCCCN)NC(=O)[C@H](CC(C)C)NC(=O)[C@H](CC(N)=O)NC(=O)[C@H](CC(N)=O)NC(=O)[C@H](CO)NC(=O)[C@H](CO)NC(=O)[C@H](Cc1c[nH]cn1)NC(=O)[C@H](CCCNC(=N)N)NC(=O)[C@H](CC(C)C)NC(=O)[C@H](Cc1ccccc1)NC(=O)[C@H](CC(=O)O)NC(=O)[C@H](C)NC(=O)[C@H](CC(C)C)NC(=O)[C@H](CCCNC(=N)N)NC(=O)[C@H](CCC(N)=O)NC(=O)[C@H](CC(C)C)NC(=O)[C@@H](NC(=O)[C@H](C)NC(=O)[C@@H](NC(=O)[C@H](CO)NC(=O)[C@H](CC(C)C)NC(=O)[C@H](CCC(N)=O)NC(=O)[C@H](CO)NC(=O)[C@H](C)NC(=O)CC[C@H](NC(=O)CCCCCCCCCCCCCCCCCCC(=O)O)C(=O)O)[C@@H](C)O)C(C)C)C(=O)N[C@@H](CC(C)C)C(=O)N1CCC[C@H]1C(=O)N1CCC[C@H]1C(=O)N[C@H](C(=O)N[C@@H](CC(N)=O)C(=O)N[C@H](C(=O)NCC(=O)N[C@@H](CO)C(=O)N[C@@H](CC(N)=O)C(=O)N[C@H](C(=O)N1C[C@H](O)C[C@H]1C(N)=O)[C@@H](C)O)C(C)C)[C@@H](C)O
B4: polypeptide derivative M15 (peptide)
peptide: {C20 diacid-Inp′}-ASQLSTAATQRLADFLRHFTDRDRDILPPTNVGSNTP-NH2
B5: polypeptide derivative M8 (peptide)
peptide: {C20 diacid-γGlu}-ASQLSTAVTQRLADFLRHFTDRDRDILPPTNVGSNTP-NH2
SMILES: CC[C@H](C)[C@H](NC(=O)[C@H](CC(=O)O)NC(=O)[C@H](CCCNC(=N)N)NC(=O)[C@H](CC(=O)O)NC(=O)[C@H](CCCNC(=N)N)NC(=O)[C@H](CC(=O)O)NC(=O)[C@@H](NC(=O)[C@H](Cc1ccccc1)NC(=O)[C@H](Cc1c[nH]cn1)NC(=O)[C@H](CCCNC(=N)N)NC(=O)[C@H](CC(C)C)NC(=O)[C@H](Cc1ccccc1)NC(=O)[C@H](CC(=O)O)NC(=O)[C@H](C)NC(=O)[C@H](CC(C)C)NC(=O)[C@H](CCCNC(=N)N)NC(=O)[C@H](CCC(N)=O)NC(=O)[C@@H](NC(=O)[C@@H](NC(=O)[C@H](C)NC(=O)[C@@H](NC(=O)[C@H](CO)NC(=O)[C@H](CC(C)C)NC(=O)[C@H](CCC(N)=O)NC(=O)[C@H](CO)NC(=O)[C@H](C)NC(=O)CC[C@H](NC(=O)CCCCCCCCCCCCCCCCCCC(=O)O)C(=O)O)[C@@H](C)O)C(C)C)[C@@H](C)O)[C@@H](C)O)C(=O)N[C@@H](CC(C)C)C(=O)N1CCC[C@H]1C(=O)N1CCC[C@H]1C(=O)N[C@H](C(=O)N[C@@H](CC(N)=O)C(=O)N[C@H](C(=O)NCC(=O)N[C@@H](CO)C(=O)N[C@@H](CC(N)=O)C(=O)N[C@H](C(=O)N1CCC[C@H]1C(N)=O)[C@@H](C)O)C(C)C)[C@@H](C)O
B6: polypeptide derivative M12 (peptide)
peptide: {C20 diacid-βAsp}-ASQLSTAATQRLADFLRHFTDRDRDILPPTNVGSNTP-NH2
SMILES: CC[C@H](C)[C@H](NC(=O)[C@H](CC(=O)O)NC(=O)[C@H](CCCNC(=N)N)NC(=O)[C@H](CC(=O)O)NC(=O)[C@H](CCCNC(=N)N)NC(=O)[C@H](CC(=O)O)NC(=O)[C@@H](NC(=O)[C@H](Cc1ccccc1)NC(=O)[C@H](Cc1c[nH]cn1)NC(=O)[C@H](CCCNC(=N)N)NC(=O)[C@H](CC(C)C)NC(=O)[C@H](Cc1ccccc1)NC(=O)[C@H](CC(=O)O)NC(=O)[C@H](C)NC(=O)[C@H](CC(C)C)NC(=O)[C@H](CCCNC(=N)N)NC(=O)[C@H](CCC(N)=O)NC(=O)[C@@H](NC(=O)[C@H](C)NC(=O)[C@H](C)NC(=O)[C@@H](NC(=O)[C@H](CO)NC(=O)[C@H](CC(C)C)NC(=O)[C@H](CCC(N)=O)NC(=O)[C@H](CO)NC(=O)[C@H](C)NC(=O)C[C@H](NC(=O)CCCCCCCCCCCCCCCCCCC(=O)O)C(=O)O)[C@@H](C)O)[C@@H](C)O)[C@@H](C)O)C(=O)N[C@@H](CC(C)C)C(=O)N1CCC[C@H]1C(=O)N1CCC[C@H]1C(=O)N[C@H](C(=O)N[C@@H](CC(N)=O)C(=O)N[C@H](C(=O)NCC(=O)N[C@@H](CO)C(=O)N[C@@H](CC(N)=O)C(=O)N[C@H](C(=O)N1CCC[C@H]1C(N)=O)[C@@H](C)O)C(C)C)[C@@H](C)O
B7: polypeptide derivative M13 (peptide)
peptide: {C20 diacid}-DASQLSTAATQRLADFLRHFTDRDRDILPPTNVGSNTP-NH2
SMILES: CC[C@H](C)[C@H](NC(=O)[C@H](CC(=O)O)NC(=O)[C@H](CCCNC(=N)N)NC(=O)[C@H](CC(=O)O)NC(=O)[C@H](CCCNC(=N)N)NC(=O)[C@H](CC(=O)O)NC(=O)[C@@H](NC(=O)[C@H](Cc1ccccc1)NC(=O)[C@H](Cc1c[nH]cn1)NC(=O)[C@H](CCCNC(=N)N)NC(=O)[C@H](CC(C)C)NC(=O)[C@H](Cc1ccccc1)NC(=O)[C@H](CC(=O)O)NC(=O)[C@H](C)NC(=O)[C@H](CC(C)C)NC(=O)[C@H](CCCNC(=N)N)NC(=O)[C@H](CCC(N)=O)NC(=O)[C@@H](NC(=O)[C@H](C)NC(=O)[C@H](C)NC(=O)[C@@H](NC(=O)[C@H](CO)NC(=O)[C@H](CC(C)C)NC(=O)[C@H](CCC(N)=O)NC(=O)[C@H](CO)NC(=O)[C@H](C)NC(=O)[C@H](CC(=O)O)NC(=O)CCCCCCCCCCCCCCCCCCC(=O)O)[C@@H](C)O)[C@@H](C)O)[C@@H](C)O)C(=O)N[C@@H](CC(C)C)C(=O)N1CCC[C@H]1C(=O)N1CCC[C@H]1C(=O)N[C@H](C(=O)N[C@@H](CC(N)=O)C(=O)N[C@H](C(=O)NCC(=O)N[C@@H](CO)C(=O)N[C@@H](CC(N)=O)C(=O)N[C@H](C(=O)N1CCC[C@H]1C(N)=O)[C@@H](C)O)C(C)C)[C@@H](C)O

Starred links: 1 amine or outer side, 2 acyl side, 3 side chain; linkers in the order of their positions; H or OH if unused. Non-standard residues stand in square brackets, D forms with d. Primed or numbered codes have the meaning given here. *: point of attachment. C20 diacid = O=C(O)CCCCCCCCCCCCCCCCCCC(=O)*; γGlu = O=C(O)[C@H](CCC(=O)[*:2])N[*:1]; βAsp = O=C(O)[C@H](CC(=O)[*:2])N[*:1]; Hyp = O=C(O)[C@@H]1C[C@@H](O)CN1; Inp′ = not defined here; Trx′ = not defined here

The target of this assay is T1, human amylin receptor (AMY3) on CHO-K1/Ga15/AMY3 amylin receptor/CRE-luc cells (human, UniProt P30988 25-474; O60896 24-148).
T1 sequence (looked up) 1: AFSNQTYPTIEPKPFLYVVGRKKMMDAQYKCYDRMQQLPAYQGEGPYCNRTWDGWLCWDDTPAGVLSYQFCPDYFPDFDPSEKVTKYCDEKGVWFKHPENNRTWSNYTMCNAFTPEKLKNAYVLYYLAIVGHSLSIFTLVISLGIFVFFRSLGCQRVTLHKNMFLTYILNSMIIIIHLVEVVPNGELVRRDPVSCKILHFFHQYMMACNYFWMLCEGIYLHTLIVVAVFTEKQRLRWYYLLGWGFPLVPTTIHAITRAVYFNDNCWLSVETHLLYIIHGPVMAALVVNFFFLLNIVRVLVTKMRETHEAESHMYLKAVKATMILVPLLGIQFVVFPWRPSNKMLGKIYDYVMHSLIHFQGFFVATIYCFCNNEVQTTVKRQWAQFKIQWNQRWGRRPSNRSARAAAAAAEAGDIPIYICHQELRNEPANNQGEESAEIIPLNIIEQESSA
T1 sequence (looked up) 2: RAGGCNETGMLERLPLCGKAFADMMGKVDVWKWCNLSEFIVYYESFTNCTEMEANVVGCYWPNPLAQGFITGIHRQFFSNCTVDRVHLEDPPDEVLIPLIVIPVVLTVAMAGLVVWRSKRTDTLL
Put plainly: cell-based or functional assay.
As for B1, the “EC50/nM, CRE-luciferase reporter in amylin receptor/CRE-luc CHO cells” value (shortened to “EC50/nM … in amylin receptor/CRE-luc CHO cells”) amounted to 0.004 nM and the “Relative activity (the EC50 ratio of Cagrilintide to the compound)” value was 110%.

Turning to B2, the “EC50/nM … in amylin receptor/CRE-luc CHO cells” value was 0.018 nM and the “Relative activity (the EC50 ratio of Cagrilintide to the compound)” value was found to be 136%.

For the molecule B3, the “EC50/nM … in amylin receptor/CRE-luc CHO cells” value turned out to be 0.026 nM and the “Relative activity (the EC50 ratio of Cagrilintide to the compound)” value is 100%.

Turning to B4, the “EC50/nM … in amylin receptor/CRE-luc CHO cells” value was found to be 0.03 nM and the “Relative activity (the EC50 ratio of Cagrilintide to the compound)” value worked out at 81%.

As to B5, the “EC50/nM … in amylin receptor/CRE-luc CHO cells” value turned out to be 0.049 nM and the “Relative activity (the EC50 ratio of Cagrilintide to the compound)” value is 53%.

Regarding B6, the “EC50/nM … in amylin receptor/CRE-luc CHO cells” value stood at 0.034 nM and the “Relative activity (the EC50 ratio of Cagrilintide to the compound)” value was determined as 78%.

In the case of B7, the “EC50/nM … in amylin receptor/CRE-luc CHO cells” value was determined as 0.034 nM and the “Relative activity (the EC50 ratio of Cagrilintide to the compound)” value was found to be 78%.
